{"source": "patent US20170175137A1", "binders": {"B1": {"name": "blocking anti-PD-L1 antibody (Biolegend clone 29E.2A3) (antibody, from another filing, V domains shown)", "VH": "EVQLQQSGPELVKPGASVKMSCKASGYTFTSYVMHWVKQKPGQGLEWIGYVNPFNDGTKYNEMFKGKATLTSDKSSSTAYMELSSLTSEDSAVYYCARQAWGYPWGQGTLVTVSA", "VL": "DIVLTQSPASLAVSLGQRATISCRATESVEYYGTSLVQWYQQKPGQPPKLLIYAASSVDSGVPARFSGSGSGTDFSLTIHPVEEDDIAMYFCQQSRRVPYTFGGGTKLEIK"}}, "molecular_target": "PD-L1 on FEMX melanoma cells (UniProt Q9NZQ7)", "sequence (Q9NZQ7 19-290 limits assumed)": "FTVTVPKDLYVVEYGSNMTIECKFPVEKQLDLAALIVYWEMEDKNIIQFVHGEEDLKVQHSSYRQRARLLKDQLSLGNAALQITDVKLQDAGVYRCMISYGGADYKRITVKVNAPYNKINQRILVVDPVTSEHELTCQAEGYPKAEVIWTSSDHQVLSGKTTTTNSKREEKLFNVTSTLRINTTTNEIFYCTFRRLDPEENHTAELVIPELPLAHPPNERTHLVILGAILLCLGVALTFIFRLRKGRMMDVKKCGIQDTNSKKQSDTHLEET", "assay": "cell-based or functional assay"}
{"binder": "B1", "values": [{"measurement": "fraction of CD3+CD8+ TIL making IFN-gamma in a 12-hour intracellular cytokine release (ICS) assay, 1520 TIL co-cultured with FEMX tumor cells, antibody at 10 µg/mL", "value": 37.3, "unit": "%"}]}
